Measured values from patent US20260125457A1 (Janssen / Centocor, published 2026).

B1: CALRB114 (MP1001 Fab x CD3W245-HL-scFv, high affinity) (bispecific antibody, part only; not given: CD3 scFv arm and IgG1 constant regions, V domains shown, not shown: another chain or arm of the molecule; a dimerising Fc or GST; small tags and cut ends)
VH: QEQLKESGGRLVTPGTPLTLTCAVSGFSLDIYGMSWVRQAPGKGLEWIGIIYIEGITYYANWAKGRFTISKTSSTTLELKMTSLTTEDTAMYFCVAGVGRIWGPGTLVTVSS
VL: YVMMTQTPSSVSAAVGGTVTINCQASQSLYNNNNLAWFQQKPGQPPKRLIYPASTLASGVSSRFKGSGSGTQFTLTISDVQSDDAATYFCLGEFSCSSADCYAFGGGTEVVVK
B2: CALRB74 (MP1001 Fab x CD3W245-LH-scFv, medium affinity) (bispecific antibody, part only; not given: CD3 scFv arm and IgG1 constant regions, V domains shown, not shown: another chain or arm of the molecule; a dimerising Fc or GST; small tags and cut ends)
VL: YVMMTQTPSSVSAAVGGTVTINCQASQSLYNNNNLAWFQQKPGQPPKRLIYPASTLASGVSSRFKGSGSGTQFTLTISDVQSDDAATYFCLGEFSCSSADCYAFGGGTEVVVK
VH: QEQLKESGGRLVTPGTPLTLTCAVSGFSLDIYGMSWVRQAPGKGLEWIGIIYIEGITYYANWAKGRFTISKTSSTTLELKMTSLTTEDTAMYFCVAGVGRIWGPGTLVTVSS
B3: CALRB75 (MP1004 Fab x CD3W245-LH-scFv, medium affinity) (bispecific antibody, part only; not given: CD3 scFv arm and IgG1 constant regions, V domains shown, not shown: another chain or arm of the molecule; a dimerising Fc or GST; small tags and cut ends)
VL: DPMLTQTPSSVSAAVGGTVTINCQSSQSVYNNNWLSWLQQKPGQPPNRLIYDASKLESGVPSRFSGSGSGTQFTLTISGVQSDDAATYYCAGGFTGNVYTFGGGTEVVVK
VH: QEQLEESGGRLVTPGTPLTLTCKVSGIDLSNNAISWVRQAPGKGLEYIGVIGNTGDTYYASWAKGRFTISKTSSTTVDLKMTSLTTEDTATYFCVRGPPSYSNSVKNIWGPGTLVTISS
B4: CALRB116 (MP1007 Fab x CD3W245-HL-scFv, high affinity) (bispecific antibody, part only; not given: anti-CD3 scFv arm, constant regions, V domains shown, not shown: another chain or arm of the molecule; a dimerising Fc or GST; small tags and cut ends)
VH: QQLEESGGRLVAPGTPLRLTCTVSGIDLSNNAVSWVRQAPGKGLEYIGVIGNTGTTYYANWAKGRFTISKTSSTTVDLKMTSLTTDDTATYFCVRGPPSYSNSVRNIWGPGTLVTVSS
VL: DPMLTQTPSSVSAAVGGTVTIGCQSSQSVYDNNWLSWYQQKPGQPPNRLIYDASKLASGVPSRFSGSGSGTQFTLTISGVKSDDAATYYCAGGYTGNVYSFGGGTMVEIK
B5: CALRB76 (MP1007 Fab x CD3W245-LH-scFv, medium affinity) (bispecific antibody, part only; not given: CD3 scFv arm and IgG1 constant regions, V domains shown, not shown: another chain or arm of the molecule; a dimerising Fc or GST; small tags and cut ends)
VL: DPMLTQTPSSVSAAVGGTVTIGCQSSQSVYDNNWLSWYQQKPGQPPNRLIYDASKLASGVPSRFSGSGSGTQFTLTISGVKSDDAATYYCAGGYTGNVYSFGGGTMVEIK
VH: QQLEESGGRLVAPGTPLRLTCTVSGIDLSNNAVSWVRQAPGKGLEYIGVIGNTGTTYYANWAKGRFTISKTSSTTVDLKMTSLTTDDTATYFCVRGPPSYSNSVRNIWGPGTLVTVSS
B6: CALRB117 (MP1010 Fab x CD3W245-HL-scFv, high affinity) (bispecific antibody, part only; not given: anti-CD3 scFv arm, constant regions, V domains shown, not shown: another chain or arm of the molecule; a dimerising Fc or GST; small tags and cut ends)
VH: QSVEESGGRLVTPGTPLTLTCTVSGIDLSNNAISWVRQAPGKGLEYIGVIGNTGDTYYASWAKGRFTISKTSSTTVDLKMTSLTTEDTATYFCVRGPPSYSNSVKNIWGPGTLVTISS
VL: DPMLTQTPSSVSAAVGGTVTIGCQSSQSVYDKNWLSWYQQKPGQPPSRLIYDASKLESGVPSRFSGSGSGTQFTLTISGVQSDDVATYYCAGGFTGNVYAFGGGTEVVVK

How the values were obtained:
[1] = biological target: CALRdel52 (mutant calreticulin, 52 base pair deletion, Type 1) expressed with MPL on engineered cancer cells (UniProt P27797); experiment: cell-based or functional assay
[2] = biological target: CALRins5 (mutant calreticulin, 5 base pair insertion, Type 2) expressed with MPL on engineered cancer cells (UniProt P27797); experiment: cell-based or functional assay
Sequence of CALRins5 (mutant calreticulin, 5 base pair insertion, Type 2) expressed with MPL on engineered cancer cells (P27797 other isoform, or with tags, fused parts or gaps mutant limits assumed): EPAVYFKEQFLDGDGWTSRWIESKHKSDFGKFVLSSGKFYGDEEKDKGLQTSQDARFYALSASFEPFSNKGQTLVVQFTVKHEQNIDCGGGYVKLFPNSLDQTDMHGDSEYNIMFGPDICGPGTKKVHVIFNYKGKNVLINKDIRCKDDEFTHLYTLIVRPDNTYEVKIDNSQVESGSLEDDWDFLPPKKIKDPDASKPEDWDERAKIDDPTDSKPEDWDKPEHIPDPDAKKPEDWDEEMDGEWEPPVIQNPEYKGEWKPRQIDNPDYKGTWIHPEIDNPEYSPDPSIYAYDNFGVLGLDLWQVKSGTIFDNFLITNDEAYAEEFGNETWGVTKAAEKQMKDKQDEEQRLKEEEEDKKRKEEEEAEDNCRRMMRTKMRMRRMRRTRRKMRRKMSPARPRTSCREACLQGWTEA

Sequence of CALRdel52 (mutant calreticulin, 52 base pair deletion, Type 1) expressed with MPL on engineered cancer cells (P27797 other isoform, or with tags, fused parts or gaps mutant limits assumed): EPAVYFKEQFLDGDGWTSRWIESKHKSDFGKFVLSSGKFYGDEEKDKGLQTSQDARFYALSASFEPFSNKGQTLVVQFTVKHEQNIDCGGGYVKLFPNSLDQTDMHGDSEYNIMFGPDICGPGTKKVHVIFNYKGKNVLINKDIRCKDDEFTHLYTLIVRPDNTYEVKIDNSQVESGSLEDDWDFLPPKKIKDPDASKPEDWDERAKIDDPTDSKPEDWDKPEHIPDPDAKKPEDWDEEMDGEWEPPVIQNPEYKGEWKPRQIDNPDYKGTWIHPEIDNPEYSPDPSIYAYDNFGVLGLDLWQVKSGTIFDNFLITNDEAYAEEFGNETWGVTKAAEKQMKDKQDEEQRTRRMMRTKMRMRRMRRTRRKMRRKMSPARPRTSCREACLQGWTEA

Row | Binder | Cytotoxicity EC50, K562 MPL CALRdel52 cells [1] [µg/mL] | Cytotoxicity EC50, OCI-M2 MPL CALRdel52 cells [1] [µg/mL] | Cytotoxicity EC50, K562 MPL CALRins5 cells [2] [µg/mL] | Cytotoxicity EC50, OCI-M2 MPL CALRins5 cells [2] [µg/mL]
1 | B1 | 0.0112 | 0.0168 | 0.0163 | 0.0235
2 | B2 | 0.0521 | 0.0253 | 0.0304 | 0.0322
3 | B3 | 0.193 | 0.115 | 0.116 | 0.129
4 | B4 | 0.0243 | 0.0802 | 0.0953 | 0.0392
5 | B5 | 0.0633 | 0.0897 | 0.107 | 0.189
6 | B6 | 0.0403 | 0.0598 | 0.0741 | 0.0481
